The experiment addresses feline FcRn complex (FcRn-α subunit and β-microglobulin), biotin labeled (feline). The experiment is described as follows: SPR, pH 6.

Broadly, the Kd is the concentration at which binding is half-saturated. As for feline IgG1a S434Q (antibody), the Kd was determined as 4.8 nM.

B1: feline IgG1a wild-type (WT) (antibody, part only; not given: Variable domains, not shown: another chain or arm of the molecule)
constant: ASTTAPSVFPLAPSCGTTSGATVALACLVLGYFPEPVTVSWNSGALTSGVHTFPAVLQASGLYSLSSMVTVPSSRWLSDTFTCNVAHPPSNTKVDKTVRKTDHPPGPKPCDCPKCPPPEMLGGPSIFIFPPKPKDTLSISRTPEVTCLVVDLGPDDSDVQITWFVDNTQVYTAKTSPREEQFNSTYRVVSVLPILHQDWLKGKEFKCKVNSKSLPSPIERTISKAKGQPHEPQVYVLPPAQEELSRNKVSVTCLIKSFHPPDIAVEWEITGQPEPENNYRTTPPQLDSDGTYFVYSKLSVDRSHWQRGNTYTCSVSHEALHSHHTQKSLTQSPGK
Regarding B1, the equilibrium dissociation constant (Kd) was found to be 20.2 nM. Against the preceding molecule, the Kd is about 4.2-fold higher.

B2: feline IgG1a A378Q (antibody, part only; not given: Variable domains, not shown: another chain or arm of the molecule)
constant: ASTTAPSVFPLAPSCGTTSGATVALACLVLGYFPEPVTVSWNSGALTSGVHTFPAVLQASGLYSLSSMVTVPSSRWLSDTFTCNVAHPPSNTKVDKTVRKTDHPPGPKPCDCPKCPPPEMLGGPSIFIFPPKPKDTLSISRTPEVTCLVVDLGPDDSDVQITWFVDNTQVYTAKTSPREEQFNSTYRVVSVLPILHQDWLKGKEFKCKVNSKSLPSPIERTISKAKGQPHEPQVYVLPPAQEELSRNKVSVTCLIKSFHPPDIQVEWEITGQPEPENNYRTTPPQLDSDGTYFVYSKLSVDRSHWQRGNTYTCSVSHEALHSHHTQKSLTQSPGK
Molecule B2 returned a dissociation constant Kd of 49 nM.

B3: feline IgG1a A378V (antibody, part only; not given: Variable domains, not shown: another chain or arm of the molecule; small tags and cut ends)
constant: ASTTAPSVFPLAPSCGTTSGATVALACLVLGYFPEPVTVSWNSGALTSGVHTFPAVLQASGLYSLSSMVTVPSSRWLSDTFTCNVAHPPSNTKVDKTVRKTDHPPGPKPCDCPKCPPPEMLGGPSIFIFPPKPKDTLSISRTPEVTCLVVDLGPDDSDVQITWFVDNTQVYTAKTSPREEQFNSTYRVVSVLPILHQDWLKGKEFKCKVNSKSLPSPIERTISKAKGQPHEPQVYVLPPAQEELSRNKVSVTCLIKSFHPPDIVVEWEITGQPEPENNYRTTPPQLDSDGTYFVYSKLSVDRSHWQRGNTYTCSVSHEALHSHHTQKSLTQSPGK
Consider B3, for which the Kd came to 42.9 nM.

B4: feline IgG1a A378T (antibody, part only; not given: Variable domains, not shown: another chain or arm of the molecule; small tags and cut ends)
constant: ASTTAPSVFPLAPSCGTTSGATVALACLVLGYFPEPVTVSWNSGALTSGVHTFPAVLQASGLYSLSSMVTVPSSRWLSDTFTCNVAHPPSNTKVDKTVRKTDHPPGPKPCDCPKCPPPEMLGGPSIFIFPPKPKDTLSISRTPEVTCLVVDLGPDDSDVQITWFVDNTQVYTAKTSPREEQFNSTYRVVSVLPILHQDWLKGKEFKCKVNSKSLPSPIERTISKAKGQPHEPQVYVLPPAQEELSRNKVSVTCLIKSFHPPDITVEWEITGQPEPENNYRTTPPQLDSDGTYFVYSKLSVDRSHWQRGNTYTCSVSHEALHSHHTQKSLTQSPGK
Take B4: the equilibrium dissociation constant (Kd) was 59.2 nM.

B5: feline IgG1a S252A (antibody, part only; not given: Variable domains, not shown: another chain or arm of the molecule; small tags and cut ends)
constant: ASTTAPSVFPLAPSCGTTSGATVALACLVLGYFPEPVTVSWNSGALTSGVHTFPAVLQASGLYSLSSMVTVPSSRWLSDTFTCNVAHPPSNTKVDKTVRKTDHPPGPKPCDCPKCPPPEMLGGPSIFIFPPKPKDTLAISRTPEVTCLVVDLGPDDSDVQITWFVDNTQVYTAKTSPREEQFNSTYRVVSVLPILHQDWLKGKEFKCKVNSKSLPSPIERTISKAKGQPHEPQVYVLPPAQEELSRNKVSVTCLIKSFHPPDIAVEWEITGQPEPENNYRTTPPQLDSDGTYFVYSKLSVDRSHWQRGNTYTCSVSHEALHSHHTQKSLTQSPGK
Molecule B5 returned a Kd of 27.1 nM. Compared with the last molecule, the Kd is about 2.2-fold lower.

B6: feline IgG1a S252C (antibody, part only; not given: Variable domains, not shown: another chain or arm of the molecule; small tags and cut ends)
constant: ASTTAPSVFPLAPSCGTTSGATVALACLVLGYFPEPVTVSWNSGALTSGVHTFPAVLQASGLYSLSSMVTVPSSRWLSDTFTCNVAHPPSNTKVDKTVRKTDHPPGPKPCDCPKCPPPEMLGGPSIFIFPPKPKDTLCISRTPEVTCLVVDLGPDDSDVQITWFVDNTQVYTAKTSPREEQFNSTYRVVSVLPILHQDWLKGKEFKCKVNSKSLPSPIERTISKAKGQPHEPQVYVLPPAQEELSRNKVSVTCLIKSFHPPDIAVEWEITGQPEPENNYRTTPPQLDSDGTYFVYSKLSVDRSHWQRGNTYTCSVSHEALHSHHTQKSLTQSPGK
Turning to B6, the dissociation constant Kd is 922 nM.

B7: feline IgG1a A378W (antibody, part only; not given: Variable domains, not shown: another chain or arm of the molecule; small tags and cut ends)
constant: ASTTAPSVFPLAPSCGTTSGATVALACLVLGYFPEPVTVSWNSGALTSGVHTFPAVLQASGLYSLSSMVTVPSSRWLSDTFTCNVAHPPSNTKVDKTVRKTDHPPGPKPCDCPKCPPPEMLGGPSIFIFPPKPKDTLSISRTPEVTCLVVDLGPDDSDVQITWFVDNTQVYTAKTSPREEQFNSTYRVVSVLPILHQDWLKGKEFKCKVNSKSLPSPIERTISKAKGQPHEPQVYVLPPAQEELSRNKVSVTCLIKSFHPPDIWVEWEITGQPEPENNYRTTPPQLDSDGTYFVYSKLSVDRSHWQRGNTYTCSVSHEALHSHHTQKSLTQSPGK
As to B7, the Kd worked out at 91 nM. This Kd lies about 10-fold lower than the previous one.

B8: feline IgG1a A378R (antibody, part only; not given: Variable domains, not shown: another chain or arm of the molecule)
constant: ASTTAPSVFPLAPSCGTTSGATVALACLVLGYFPEPVTVSWNSGALTSGVHTFPAVLQASGLYSLSSMVTVPSSRWLSDTFTCNVAHPPSNTKVDKTVRKTDHPPGPKPCDCPKCPPPEMLGGPSIFIFPPKPKDTLSISRTPEVTCLVVDLGPDDSDVQITWFVDNTQVYTAKTSPREEQFNSTYRVVSVLPILHQDWLKGKEFKCKVNSKSLPSPIERTISKAKGQPHEPQVYVLPPAQEELSRNKVSVTCLIKSFHPPDIRVEWEITGQPEPENNYRTTPPQLDSDGTYFVYSKLSVDRSHWQRGNTYTCSVSHEALHSHHTQKSLTQSPGK
Consider B8, for which the dissociation constant Kd is 36.2 nM. This Kd is about 2.5-fold lower than that of the molecule before.

B9: feline IgG1a A378Y (antibody, part only; not given: Variable domains, not shown: another chain or arm of the molecule; small tags and cut ends)
constant: ASTTAPSVFPLAPSCGTTSGATVALACLVLGYFPEPVTVSWNSGALTSGVHTFPAVLQASGLYSLSSMVTVPSSRWLSDTFTCNVAHPPSNTKVDKTVRKTDHPPGPKPCDCPKCPPPEMLGGPSIFIFPPKPKDTLSISRTPEVTCLVVDLGPDDSDVQITWFVDNTQVYTAKTSPREEQFNSTYRVVSVLPILHQDWLKGKEFKCKVNSKSLPSPIERTISKAKGQPHEPQVYVLPPAQEELSRNKVSVTCLIKSFHPPDIYVEWEITGQPEPENNYRTTPPQLDSDGTYFVYSKLSVDRSHWQRGNTYTCSVSHEALHSHHTQKSLTQSPGK
Consider B9, for which the Kd turned out to be 69.6 nM.

B10: feline IgG1a S252D (antibody, part only; not given: Variable domains, not shown: another chain or arm of the molecule; small tags and cut ends)
constant: ASTTAPSVFPLAPSCGTTSGATVALACLVLGYFPEPVTVSWNSGALTSGVHTFPAVLQASGLYSLSSMVTVPSSRWLSDTFTCNVAHPPSNTKVDKTVRKTDHPPGPKPCDCPKCPPPEMLGGPSIFIFPPKPKDTLDISRTPEVTCLVVDLGPDDSDVQITWFVDNTQVYTAKTSPREEQFNSTYRVVSVLPILHQDWLKGKEFKCKVNSKSLPSPIERTISKAKGQPHEPQVYVLPPAQEELSRNKVSVTCLIKSFHPPDIAVEWEITGQPEPENNYRTTPPQLDSDGTYFVYSKLSVDRSHWQRGNTYTCSVSHEALHSHHTQKSLTQSPGK
With B10, the dissociation constant (Kd) came to 93.5 nM.

B11: feline IgG1a A378S (antibody, part only; not given: Variable domains, not shown: another chain or arm of the molecule)
constant: ASTTAPSVFPLAPSCGTTSGATVALACLVLGYFPEPVTVSWNSGALTSGVHTFPAVLQASGLYSLSSMVTVPSSRWLSDTFTCNVAHPPSNTKVDKTVRKTDHPPGPKPCDCPKCPPPEMLGGPSIFIFPPKPKDTLSISRTPEVTCLVVDLGPDDSDVQITWFVDNTQVYTAKTSPREEQFNSTYRVVSVLPILHQDWLKGKEFKCKVNSKSLPSPIERTISKAKGQPHEPQVYVLPPAQEELSRNKVSVTCLIKSFHPPDISVEWEITGQPEPENNYRTTPPQLDSDGTYFVYSKLSVDRSHWQRGNTYTCSVSHEALHSHHTQKSLTQSPGK
The molecule B11 displayed a dissociation constant (Kd) of 48.3 nM. This Kd lies about 1.9-fold lower than the previous one.

Source of the values: patent publication US20240400708A1.
